# PMC7337043
# B1: Fab of monoclonal antibody ZAb_FLEP (Fab, V domains shown)
# VH: EVQLLESGGGLVQPGGSLRLSCAASGFSFSTYSMHWVRQAPGKGLEWVSAISGEGDSAYYADSVKGRFTISRDNSKNTLYLQMNKVRAEDTAVYYCVGGYSNFYYYYTMDAWGQGTMVTVSS
# VL: DIVMTQSPASLSLSPGERATLSCRATQSISTFLAWYQQKPGQAPRLLIYDASTRASGIPARFSGSRSGTDFTLTITRLEPEDFAVYYCQQRYNWPPYSFGQGTKLEIK
# Biological target: mature Zika virus (ZIKV) virion, icosahedral shell of 180 copies each of the E protein and M protein (Zika virus)
# Assay: cryo-EM structure; purified ZIKV virions (10 mM Tris-HCl pH 8.0, 120 mM NaCl, 1 mM EDTA) mixed with purified Fab (15 mM Tris-HCl pH 8, 150 mM NaCl) at E protein:Fab molar ratio 1:2; single particle analysis with icosahedral symmetry, 4.1 Å
binder,measurement,value
B1,stoichiometry N (Fab molecules per virion),120
